Experimental data: doi:10.1101/2021.07.29.454247 (bioRxiv, 2021)

Target: endogenous TRPM2 of mouse brain (mouse (endogenous in brain), UniProt Q91YD4 1-1506)
Assay: co-IP

endogenous TRPM2 of mouse brain, sequence (Q91YD4 whole entry): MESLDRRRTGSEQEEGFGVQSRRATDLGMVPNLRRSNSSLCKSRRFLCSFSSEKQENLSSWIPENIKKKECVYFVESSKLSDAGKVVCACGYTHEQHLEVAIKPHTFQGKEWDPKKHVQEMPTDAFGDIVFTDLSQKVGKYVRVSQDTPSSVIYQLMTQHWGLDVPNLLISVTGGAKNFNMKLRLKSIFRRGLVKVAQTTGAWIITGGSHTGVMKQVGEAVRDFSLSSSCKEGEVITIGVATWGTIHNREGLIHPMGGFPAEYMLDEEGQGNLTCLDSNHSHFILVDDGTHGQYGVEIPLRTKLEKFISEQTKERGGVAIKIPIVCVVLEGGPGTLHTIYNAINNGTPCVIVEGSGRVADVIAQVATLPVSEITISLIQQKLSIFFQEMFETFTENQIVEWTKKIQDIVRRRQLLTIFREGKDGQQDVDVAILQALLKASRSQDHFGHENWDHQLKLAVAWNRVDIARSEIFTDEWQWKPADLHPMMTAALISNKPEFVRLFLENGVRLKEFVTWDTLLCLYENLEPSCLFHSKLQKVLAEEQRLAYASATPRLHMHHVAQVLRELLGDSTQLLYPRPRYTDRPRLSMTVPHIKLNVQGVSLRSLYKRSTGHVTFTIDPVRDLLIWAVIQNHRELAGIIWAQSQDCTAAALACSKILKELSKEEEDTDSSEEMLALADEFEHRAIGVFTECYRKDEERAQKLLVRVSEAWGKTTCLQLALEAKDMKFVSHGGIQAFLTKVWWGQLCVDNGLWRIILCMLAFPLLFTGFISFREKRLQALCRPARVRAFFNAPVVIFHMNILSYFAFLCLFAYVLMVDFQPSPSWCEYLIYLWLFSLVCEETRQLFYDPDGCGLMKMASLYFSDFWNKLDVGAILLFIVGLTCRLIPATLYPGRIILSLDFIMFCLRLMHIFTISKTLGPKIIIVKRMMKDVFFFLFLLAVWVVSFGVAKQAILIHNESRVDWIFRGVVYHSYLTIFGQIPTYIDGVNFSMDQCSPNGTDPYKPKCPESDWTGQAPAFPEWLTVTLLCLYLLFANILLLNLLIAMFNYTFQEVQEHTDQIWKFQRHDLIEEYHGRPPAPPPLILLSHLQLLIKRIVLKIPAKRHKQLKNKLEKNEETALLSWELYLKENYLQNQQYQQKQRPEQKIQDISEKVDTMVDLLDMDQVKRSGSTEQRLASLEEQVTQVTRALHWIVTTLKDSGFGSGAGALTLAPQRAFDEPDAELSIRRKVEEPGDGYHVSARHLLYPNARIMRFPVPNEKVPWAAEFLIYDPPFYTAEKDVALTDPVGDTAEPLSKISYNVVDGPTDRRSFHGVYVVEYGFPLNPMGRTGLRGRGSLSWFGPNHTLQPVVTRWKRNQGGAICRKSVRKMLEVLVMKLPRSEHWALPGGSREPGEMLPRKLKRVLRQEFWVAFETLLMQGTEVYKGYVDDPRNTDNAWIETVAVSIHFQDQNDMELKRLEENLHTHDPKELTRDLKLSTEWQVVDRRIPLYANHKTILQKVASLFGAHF

B1: endogenous PKCγ of mouse brain and neurons (enzyme)
chain: not shown
- fold of PKCγ pulled down by anti-TRPM2, MCAO against sham: ~1.5 fold
